Laboratory results from the DeepSol protein solubility set.

Experiment: soluble on expression in E. coli; label from the status in PepcDB or PDB records

| Sequence | soluble on expression in E. coli |
| --- | --- |
| MAGDPMQADLFDAEQTGIRTRLGEQAWVLRGFALPWLDALLPALRAVIAQAPLRHMATPGGFTMSVALTNCGALGWTTDAHGYRYRPDDPQTGLPWPPMPQAFAQLAREAAAQAGFAGFDPDACLVNRYAPGARMSLHQDKNERDFGAPIVSVSLGLPAMFLFGGARRDERPARIPLLHGDVAVWGGVDRLRYHGVMPLAEGQHPLLGRQRINFTLRRAGALEHHHHHH | not soluble |
| MAVPPTYADLGKSARDVFNKGYGFGLVKLEVKTKSSSGVEFTSSGSSNTDTGKASGNLETKYKMKETGLTFTQKWNTDNTLGTEVALEDKLAKGLKLSLDTTFVPNTGKKSAKLKTSYKRDYANLGIDIDLDLAGPTIYGWGVLGYQGWLAGYQMAFDTAKSRLAQNNFALGYTAGDFQLHTNVNDGTEFGGSVYQKVSKDVETSVSLAWSAGSNNTRFGIGAKYQLDSNTTISAKVNNASLIGVGYTQTLRPGVKLTLSALVNGKNFSAGGHKVGLGFELEA | not soluble |
| MAHHHHHHMNEPSSGETNLQGGEDDVSAKGRSYGGAGGEKDAESNMNPSDNNTSSAVEDNHENSAQKEGADELGEDALNEMFDDFLKDIENISSNMENQQEGKKLNKGDAESEIARLLANKNSSPFEIFGIHEDVDMEKIKSKYRRLSVLIHPDKCKIEKASEAFHILNKAYEELKKDDIKEQYKSVYETAKKNIIKKLNLKKIRNELNEYLNKNEEEYEITKEVQLLINEECENLLKVQKEKMEYAQKCKLANLQYAKEKEEEKMKEELKKEEERKLWIEGREERVNNWKNYKKDNLKTEKEFHIYKNVGKKKEERTEEEKEKLKRISTTNPMEK | soluble |
| MAHHHHHHMRVRSLLLCIRRDPLQRAVDVAYASGMLLGSGSSRGTTHFSETTAFTSSNFAADLRGGRVGLAGDGGTKCDDRNGELVRGRIQFASRCAEGPFVGASPTVTSCAHIEGVVRQVECGYVGGDRVLQFIIEVEEVPASGGTPMRLPLAVRWRPGSEVAQNRMDEWQKEMERLVGRRVLASGRLQVEECFDSGSRRLYKTPSLVLPATSTVEMISLQELEC | not soluble |
| DVSGTVCLSALPPEATDTLNLIASDGPFPYSQDGVTFQNRESVLPTQSYGYYHEYTVITPGARTRGTRRIITGEATQEDYYTGDHYATFSLIDQTC | soluble |
| SAEKQAGLVGEPDPEGSSPGTSESWNYDSNCVFCRVAAGQEPKTELFHCENEDLVCFKDIKPAALYHYLVVPKKHIGSCKDLNKDHIEMVESMVAAGKTMLERNNFTDFTDVRMGFHVPPFCSISHLHLHVIAPVKEFGFLSKLVYRQDSYWFVTVDYLLEKLRK | soluble |
| RRLETQKEAEANRGYGKPSLGGPFHLEDMYGNEFTEKNLLGKFSIIYFGFSNCPDICPDELDKLGLWLNTLSSKYGITLQPLFITCDPARDSPAVLKEYLSDFHPSILGLTGTFDEVKNACKKYRVYFSTPPNVKPGQDYLVDHSIFFYLMDPEGQFVDALGRNYDEKTGVDKIVEHVKSYVPAEQRAKQKEAWYSFLFK | soluble |
| SMGSDDEEQEDPADYCKGGYHPVKIGDLFNGRYHVIRKLGWGHFSTVWLCWDMQGKRFVAMKVVKSAQHYTETALDEIKLLKCVRESDPSDPNKDMVVQLIDDFKISGMNGIHVCMVFEVLGHHLLKWIIKSNYQGLPVRCVKSIIRQVLQGLDYLHSKCKIIHTDIKPENILMCVDDAYVRRMAAEATEWQKAGAPPPSGSAVSTAPAADLLVNPLDPRNADKIRVKIADLGNACWVHKHFTEDIQTRQYRSIEVLIGAGYSTPADIWSTACMAFELATGDYLFEPHSGEDYSRDEDHIAHIIELLGSIPRHFALSGKYSREFFNRRGELRHITKLKPWSLFDVLVEKYGWPHEDAAQFTDFLIPMLEMVPEKRASAGECLRHPWLNS | soluble |
| MYLRKILELYRDSRFKYVVVDTPPTGLTLRILSLPRLYTFWLESLIGIRERIVSLRYVIARSIGREPEMDDPVLDKLREMQDRYAKLSNDLVERERTSFAIVATPEPLPVYEARKTVEFLESMGAKPSIIVVNRILPAEIASRLGVLEVQSKALNELRTRVCRKPCVLVEIPMVETVPSSLEAVLNLVERSR | not soluble |
| MLDTAAIIISQGKKIAYAYAEGVNDNMTQSHFHDFFELYYLLEGERMHMIEGEIYHLTANDFVLFPPHIMHHSYGEKDMPFKRIVLYFSPDLIANDTICQLLSEKELLFVNEGYIPNQILSLLLSLTHEIDVPGKYHDAYICNQLNGLLLNMLRLDFEAVKSIPKTRSAKAVDYIHNHYMEDISVNQLAEILYVSPYHLCHEFKNATGKTIIQYLNTTRILHAQRLMLETDYNITQISREVGFSNLTHFNRTFKKITGVAPREKKKLYQK | not soluble |
| MGLSVVILAAGKGSRMNSNKPKVLQTLAAKTLIEHVVSSVEKLNPDNIVVVTGHLKEQVEDALQGRNITFVYQQQQLGTGHAVLQALPYLKEQKVLILYGDVPLISTEVLENLVDTTNDDDLGVLTAFVENPQGLGRIVRDKFGAVTEIVEEKDANDIQRQIKEINTGIYCVHKNLLQKWLPEIKANNVQKEYYLTDIITFAKADHVSINVTHPINEFEILGVNDRTQLASLERVWQRNVAEKIMAKGVSIADPNRFDVRGNLDVGKDCWIDINVIIKGNVKLGNNVVIGANCILKNCIIEDNVRIKSNSMVDGSIIREGAIVGPFARVRPECDVKEGAVIGNFVEAKKTILGKGSKASHLTYLGDSEIGANCNIGAGVITCNYDGVNKHKTVIGDYAFIGSDSQLIAPVNIGQGATVGAGSTIVKDVPADNLAISRARQRHIDTWQRSVKKTDK | not soluble |
| METKTVAITMGDPAGIGPEIIVKALSEDGLNGAPLVVIGCLATLKRLQAKGITPNVELRAIERVAEARFAPGIIHVIDEPLAQPEALEAGKVQAQAGDLAYRCVKRATELALRGDVQAIATAPLNKEALHLAGHNYPGHTELLATLTHSRDYAMVLYTDKLKVIHVSTHIALRKFLDTLSTARVETVIGIADTFLKRVGYVKPRIAVAGVNPHAGENGLFGDEETRILTPAITDARAKGMDVYGPCPPDTVFLQAYEGQYDMVVAMYHDQGHIPLKLLGFYDGVNITAGLPFIRTSADHGTAFDIAWTGKAKSESMAVSIKLAMQLA | soluble |
| MGSDKIHHHHHHSDIASSVNGGSNRLADGGDFELGMSVYGINQIDVRQTGSGTAQLSLLVSGMYQYKGMFVEMIHQSQDGVNLGVNLWSSEDWSFDLLLANLQGSWSRPDLDPSTLDEAGRNAYLLSEDSLYIGAGFRATRYWGDNYVFQYRLVSDYYDDQGIQSSARLGKSWQVRNWNFHVLGSVGYSSATLNRYLFGVSKEEATELFPEYHPSSSFSYGMELGVAYPLSESFVFRAMYRFNVLSKEVTDSPFNQAGYASFFNASISYVF | not soluble |
| MSLRILLALASLSGNTREVARVIRARCEERGHRVDWIETDLQTLAGQALDPHTYTLFLLGTWTDNAGRTPFEMKRFIVELLELIGKPPSVAVFGTGETQWGQEYYCGAVHRISDFFASRFPRLLIEQMPHGERDALAIVEWTDQVLDQCNKDSDADHYRYVAEGHHHHHH | soluble |
| PGATPMSLGLFSPTILLPDSAREWPPERQRLVLLHEMAHLKHRDLLLGLVGQLGRALHWPNPLAWTGWSKLLQAREAACDETVLAAGEDPETYAHQLLAAAR | not soluble |
| AEEELETPTPTQRGEAESRGDGLVDVMWEYKWENTGDAELYGPFTSAQMQTWVSEGYFPDGVYCRKLDPPGGQFYNSKRIDFDLYT | soluble |
| MGSDKIHHHHHHMPASKIYLLDYGWLGGDIGWFLPGQLGGAMTNSERNPRRDWVEIPITGALIDHPDARILFDTGIAPDAMKTHERGLMEAFPITKMDDQNHIENQLKLIGLKPEDIDFVVISHLHLDHIGQAAVFKDSHVPIIVQKKELESALSLIWQGKSGAYDYSDLLPLKGAAWMPLDDPVFEIVDGVYAEFTGGHTAGHQVLTVKTEKGSMYTLTGDFLHLPKEYDVEAKGWLLSNATEWNSYIKKMKIREKARKQKLIISHDPGIWDKYPHAPKFVE | not soluble |
| MEINEKLLRQIIEDVLSEMKGSDKPVSFNAPAASAAPQATPPAGDGFLTEVGEARQGTQQDEVIIAVGPAFGLAQTVNIVGIPHKSILREVIAGIEEEGIKARVIRCFKSSDVAFVAVEGNRLSGSGISIGIQSKGTTVIHQQGLPPLSNLELFPQAPLLTLETYRQIGKNAARYAKRESPQPVPTLNDQMARPKYQAKSAILHIKETKYVVTGKNPQELRVAL | soluble |
| MDFTIPLQLQSNTPIYLQIYEYIKAEIIQGTISVGTRLPSHRNLASQLNISRITVESAYQQLLAEGYAESKPKRGIFVANFDIDIIPNKKRNAAKKTNNLIEEKFEYDCSQGLIDQNAFPITNWKRALQESILIYENALFAKEDPQGEFALREHISTYLYHSRGVHSSPDQIVIGAGTQPLLWLLLQLLGPTKEYGIENPGFHRIHAIIKSCDRQIHPIPLDEKGIDISSLYNTNSNVAYVTPSHQFPLGIIMPLSRRLELLKWANDCNGYIIEDDYDGEFRYAGKPIPSLQSLDSNERVIYMGTFSKSFLPSLRMGYVVLPPHLLKTYQELHGIFKQTVATIQQLAFANFIQSGNWERHLNRSRTLYKRKHHTLVKSIMKEMGANVQILGEQSGLHIVLCVNNSMNENELIESAKKQSVKLYPLSPYDFVNDLRKESYVLLGFGSIPENKIETLATLLKDAWFPSCKETC | not soluble |
| MGAIEDVYADLDTDVSIEEFREAVESKVEQMGGLADEETAAMLIAHEIDDGEVNGVADIDSEMDEVKFIAKVTRVGDVRTFDREDADDDDAAAEGRVVNVTVADETDDVRVSLWDEQATAAADDLAPGDVLRIKGRPTDGYNGLEVSADEVELDADEQIDVQIQDEYDAADLSLGVSDVTLVGEVLDTEAVRTFDRDDGSEGRVSNLVVGDETGRVRVTLWDDQADTATDLDAGAVVEIVDGYVREREGSLELHVGDTGAVTPVPDADVSFVPDTTSIDSLEQDDTADIAGVVRSVDPTRTFDRDDGSEGQVRNVRLQDDTGDIRVALWGEKADLDIGPGDEVAALDVEIQDGWQDDIEASAGWQASVIPLSDSTQDDAAAGSDGPDRGLAAFGADSDDEPAATDDAADTQTPHSDTPVEFTGVVVQAQDPLILDDGEETMSVTTDADVTLGQEVTVRGSLDDGRLHADDVTESLEHHHHHH | not soluble |
| MSKATTPGDQPKVSEMDFYQLLGVEKMASEAEIKSAYRKLALKYHPDRNPNDAHAQEEFKKVSIAYSVLSDPNKRRQYDVSGPSENQLDFEGFDVSEMGGVGRVFGALFSKLGVPIPTQIVPKVLAQARHICMGQECDVQARQLPPGETVTSSVSKQHAHFYEINIQEEHRKNGVAIICKSSSSKFKLVLFDKEGGVRMIQESGKRGKAGTQADMFFVPYNVANIQEFNAMKYHLEDKETPLAFHYLDSFEMQTATLLETRKHYIAVYGDNWISDVKYSITFLPVEPSAVEQLNEIQDTEKSISIIKKEMLDFQREFTEAKRKYDEAVAKLKVQDDTILKALAHREELYNEVLQKSQEPYNKKVSPSKSSGGLLGWFK | not soluble |
| MGSDKIHHHHHHVAPSIRARSAGRDETEFDFMMTDPLALAKRLIALRARIVATFNAGNWEEVGLLSGQSKIITGHDRLLRSLSWHDEDYEGNVLTVLRRISDRDVRALDVIEEYLNEKFPGEEKTEYVSAKPSERKITFAPNVFQIPDGSVESDLVAVMMPFSPEFKPVYEAMKRACTANSLRSMRVDDMWQDSVIVQDIFSLIFRAQVVVVDFSRKNPNVMYETGIAHTLGKHVVPIAQTIDDVPFDMRHHRTLLYLANGEGLQQLERELAAKLKQFGGGGPPIINLGFSR | not soluble |
